Measurements taken from patent US20240076663A1, “PEPTIDE-NUCLEIC ACID COMPLEX HAVING BLOOD-BRAIN BARRIER PENETRATION ABILITY AND COMPOSITION COMPRISING SAME” (SEASUN THERAPEUTICS, INC, priority 2019, published 2024).
Entries after “also recorded” stand apart in the source; their conditions may differ.

Experiments:
[1] = Blood-brain barrier permeability of the nucleic acid complex in a mouse model (cy3 fluorescence in brain tissue, confocal microscopy); assay type: in vivo; settings: ICR mice, 20 mg/kg caudal vein; for distribution of fluorescence expression among brain regions: 20 mg/kg
Method: In order to confirm the blood-brain barrier permeability of the nucleic acid complex, 6-week-old male ICR mice (OrientBio, Korea) were purchased and acclimatized for a week, after which 20 mg/kg (n=6) of the nucleic acid complex was administered to the caudal veins thereof. In a positive control group (n=6), fluorescent-material-labeled methotrexate was administered to the caudal veins, and in a negative control group (n=6), DMSO at the same concentration as in the experimental group was diluted with saline and administered via the same route.
The mouse model was anesthetized by intraperitoneal administration of Avertin (5 mg/kg), followed by washing and fixing of the brain tissue through perfusion with saline and 4% paraformaldehyde. The fixed brain tissue was separated and dehydrated by placing the same in 30% sugar water for 24 hours, after which an embedding process was performed using OCT. The entire region of the brain tissue was cryosectioned into 30 μm sections. In order to observe the entire brain tissue from the cerebral cortex to the brainstem, the tissues were broadly separated into a total of six regions, namely the prefrontal cortex, lateral ventricle, paraventricular nucleus, hippocampus, midbrain, and cerebellum, and mounted on slide glasses, and the nuclei were stained with DAPI for 15 minutes and then analyzed using a confocal microscope.
Therefore, in order to determine whether the administered material spreads through the present system, the brain tissue was classified into six major regions from the front to the back and analyzed. In addition, in order to observe the extent of spreading over time, the groups were separately observed on day 1 and day 3, and the numerical values thereof were analyzed.
Then, for all experimental groups to which the nucleic acid complex was administered, the distribution of fluorescence in tissues depending on the administration date was numerically analyzed, and the distribution of fluorescence expression in each tissue of the brain after administration of the nucleic acid complex was compared.

[2] = general knowledge stated in the patent; cited from earlier work

| Compound | fluorescence expression by cy3 in brain tissue (confocal microscopy) ([1]; FIG. 1, versus group given only methotrexate) | fluorescence expression, day 3 versus day 1 ([1]; all brain tissue regions) | distribution of fluorescence expression among brain regions ([1]; day 1) | distribution of fluorescence expression among brain regions ([1]; day 3) | bioavailability (known) [2] | blood-brain barrier crossing (known) [2] |
| --- | --- | --- | --- | --- | --- | --- |
| POLIGO ™_1 (chain 1 ATGATTCTGCCCTCC; chain 2 TACTAAGACGGGAGG; chemistry not given here; one strand is listed 3' to 5') | high fluorescence expression compared to the group administered only with methotrexate | higher on day 3 than on day 1 in all brain tissue regions | higher in the midbrain and cerebellum; also recorded: high in the midbrain and cerebellum | the fluorescence spread to the prefrontal cortex; also recorded: high even in the prefrontal cortex | – | – |
| CN(Cc1cnc2nc(N)nc(N)c2n1)c1ccc(C(=O)N[C@@H](CCC(=O)O)C(=O)O)cc1 [Methotrexate] | – | – | – | – | very low bioavailability | known to cross the blood-brain barrier |
| O=C(O)CCCc1ccc(N(CCCl)CCCl)cc1 [Chlorambucil] | – | – | – | – | – | incapable of crossing the blood-brain barrier |
